One block for each substance: values may come before it.
Legend:
[1] = target: recombinant UBE3A protein (Homo sapiens (Human)) (UniProt Q05086); test: Simoa; capture GTX + helper beads; 3E5 0.2 ug/ml; UBE3A 0.800 ng/ml
[2] = target: recombinant UBE3A protein (Homo sapiens (Human)) (UniProt Q05086); test: Simoa head-to-head, Table 11; capture MS 2F6; UBE3A 0.16 ng/ml
[3] = target: recombinant UBE3A protein (Homo sapiens (Human)) (UniProt Q05086); test: Simoa; capture GTX + helper beads; 3E5 0.2 ug/ml; UBE3A 0.00128 ng/ml
[4] = target: recombinant UBE3A protein (Homo sapiens (Human)) (UniProt Q05086); test: Simoa; capture GTX; 3E5 0.4 ug/ml; UBE3A 20.0 ng/ml
[5] = target: recombinant UBE3A protein (Homo sapiens (Human)) (UniProt Q05086); test: Simoa; capture GTX; SBG 75 pm; UBE3A 0.00640 ng/ml
[6] = target: recombinant UBE3A protein (Homo sapiens (Human)) (UniProt Q05086); test: Simoa; capture GTX, no helper beads; 3E5 0.4 ug/ml; UBE3A 20.0 ng/ml
[7] = target: recombinant UBE3A protein (Homo sapiens (Human)) (UniProt Q05086); test: Simoa head-to-head, Table 10; capture MS 2F6; UBE3A 0.16 ng/ml
[8] = target: recombinant UBE3A protein (Homo sapiens (Human)) (UniProt Q05086); test: Simoa; capture GTX; SBG 75 pm; UBE3A 0.160 ng/ml
[9] = target: recombinant UBE3A protein (Homo sapiens (Human)) (UniProt Q05086); test: Simoa; capture GTX + helper beads; 3E5 0.4 ug/ml; UBE3A 0.800 ng/ml
[10] = target: recombinant UBE3A protein (Homo sapiens (Human)) (UniProt Q05086); test: Simoa; capture GTX + helper beads; 3E5 0.4 ug/ml; UBE3A 0.00640 ng/ml
[11] = target: recombinant UBE3A protein (Homo sapiens (Human)) (UniProt Q05086); test: Simoa; capture GTX + helper beads; 3E5 0.2 ug/ml; UBE3A 20.0 ng/ml
[12] = target: recombinant UBE3A protein (Homo sapiens (Human)) (UniProt Q05086); test: Simoa; capture GTX; 3E5 0.2 ug/ml; UBE3A 0.160 ng/ml
[13] = target: recombinant UBE3A protein (Homo sapiens (Human)) (UniProt Q05086); test: Simoa; capture GTX; 3E5 0.8 ug/ml; UBE3A 4.00 ng/ml
[14] = target: recombinant UBE3A protein (Homo sapiens (Human)) (UniProt Q05086); test: Simoa head-to-head, Table 11; capture GTX; UBE3A 100 ng/ml
[15] = target: recombinant UBE3A protein (Homo sapiens (Human)) (UniProt Q05086); test: 3-step Simoa, 120 min bead step; capture GTX; UBE3A 4.00 ng/ml
[16] = target: recombinant UBE3A protein (Homo sapiens (Human)) (UniProt Q05086); test: Simoa; capture GTX + helper beads; 3E5 0.1 ug/ml; UBE3A 4.00 ng/ml
[17] = target: recombinant UBE3A protein (Homo sapiens (Human)) (UniProt Q05086); test: Simoa; capture GTX, no helper beads; 3E5 0.2 ug/ml; UBE3A 0.0320 ng/ml
[18] = target: recombinant UBE3A protein (Homo sapiens (Human)) (UniProt Q05086); test: Simoa; capture GTX, no helper beads; 3E5 0.1 ug/ml; UBE3A 0.00640 ng/ml
[19] = target: recombinant UBE3A protein (Homo sapiens (Human)) (UniProt Q05086); test: Simoa; capture GTX, no helper beads; 3E5 0.2 ug/ml; UBE3A 0.800 ng/ml
[20] = target: recombinant UBE3A protein (Homo sapiens (Human)) (UniProt Q05086); test: 3-step Simoa; capture GTX; UBE3A 0.488 ng/ml

Chain of UniProt Q05086 (Q05086 whole entry): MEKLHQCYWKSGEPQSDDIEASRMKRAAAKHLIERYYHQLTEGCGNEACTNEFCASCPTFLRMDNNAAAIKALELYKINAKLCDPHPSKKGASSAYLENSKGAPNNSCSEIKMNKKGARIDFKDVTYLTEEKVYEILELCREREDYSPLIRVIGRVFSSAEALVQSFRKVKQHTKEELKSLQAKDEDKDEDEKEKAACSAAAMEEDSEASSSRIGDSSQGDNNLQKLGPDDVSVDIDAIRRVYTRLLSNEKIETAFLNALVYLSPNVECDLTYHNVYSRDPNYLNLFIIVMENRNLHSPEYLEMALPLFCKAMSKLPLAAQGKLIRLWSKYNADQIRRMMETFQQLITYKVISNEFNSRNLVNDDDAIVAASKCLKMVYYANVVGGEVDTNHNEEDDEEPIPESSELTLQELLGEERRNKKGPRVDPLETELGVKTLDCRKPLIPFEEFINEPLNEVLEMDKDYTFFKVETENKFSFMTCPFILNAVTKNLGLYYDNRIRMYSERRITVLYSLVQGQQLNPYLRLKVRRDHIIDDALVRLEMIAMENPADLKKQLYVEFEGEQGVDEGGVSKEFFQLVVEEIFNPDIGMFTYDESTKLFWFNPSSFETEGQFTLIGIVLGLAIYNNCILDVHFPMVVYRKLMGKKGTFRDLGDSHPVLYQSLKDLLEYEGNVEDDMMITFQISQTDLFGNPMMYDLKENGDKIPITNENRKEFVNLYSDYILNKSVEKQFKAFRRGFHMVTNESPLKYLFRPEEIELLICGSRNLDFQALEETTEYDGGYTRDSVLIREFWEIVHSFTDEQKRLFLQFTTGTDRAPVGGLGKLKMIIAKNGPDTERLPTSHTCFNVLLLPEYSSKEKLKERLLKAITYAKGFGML

AEB1 [1]: 0.252
AEB2 [1]: 0.261
Average AEB [1]: 0.257
Signal to Background [1]: 26.5
AEB1 [2]: 0.0071
AEB2 [2]: 0.0078
Ave AEB [2]: 0.0074
Signal to Background [2]: 1.96
AEB1 [3]: 0.0127
AEB2 [3]: 0.0115
Average AEB [3]: 0.0121
Signal to Background [3]: 1.25
AEB1 [4]: 6.82
AEB2 [4]: 7.9
AEB3 [4]: 7.67
Average AEB [4]: 7.46
Signal to Background [4]: 119
AEB1 [5]: 0.0059
AEB2 [5]: 0.0047
AEB3 [5]: 0.0074
Average AEB [5]: 0.006
Signal to Background [5]: 1.36
AEB1 [6]: 6.8
AEB2 [6]: 6.32
Average AEB [6]: 6.56
Signal to Background [6]: 336
AEB1 [7]: 0.0183
AEB2 [7]: 0.0155
Ave AEB [7]: 0.0169
Signal to Background [7]: 1.25
AEB1 [8]: 0.0299
AEB2 [8]: 0.0294
AEB3 [8]: 0.03
Average AEB [8]: 0.0298
Signal to Background [8]: 6.82
AEB1 [9]: 0.341
AEB2 [9]: 0.333
Average AEB [9]: 0.337
Signal to Background [9]: 17.2
AEB1 [10]: 0.0326
AEB2 [10]: 0.0263
Average AEB [10]: 0.0294
Signal to Background [10]: 1.51
AEB1 [11]: 5.63
AEB2 [11]: 5.39
Average AEB [11]: 5.51
Signal to Background [11]: 570
AEB1 [12]: 0.125
AEB2 [12]: 0.123
AEB3 [12]: 0.121
Average AEB [12]: 0.123
Signal to Background [12]: 3.14
AEB1 [13]: 3.18
AEB2 [13]: 3.38
AEB3 [13]: 3.16
Average AEB [13]: 3.24
Signal to Background [13]: 26.4
AEB1 [14]: 3.35
AEB2 [14]: 3.51
Ave AEB [14]: 3.43
Signal to Background [14]: 419
AEB1 [15]: 0.533
AEB2 [15]: 0.55
Ave AEB [15]: 0.542
Signal to Background [15]: 318
AEB1 [16]: 0.639
AEB2 [16]: 0.606
Average AEB [16]: 0.623
Signal to Background [16]: 109
AEB1 [17]: 0.0229
AEB2 [17]: 0.0244
Average AEB [17]: 0.0236
Signal to Background [17]: 2.44
AEB1 [18]: 0.0087
AEB2 [18]: 0.0092
Average AEB [18]: 0.0089
Signal to Background [18]: 1.56
AEB1 [19]: 0.25
AEB2 [19]: 0.247
Average AEB [19]: 0.249
Signal to Background [19]: 25.7
Substance: anti-UBE3A antibody 3E5 (SAB1404508-100 ug, Millipore-Sigma)

AEB1 [20]: 0.0023
AEB2 [20]: 0.0026
Ave AEB [20]: 0.0025
Signal to Background [20]: 0.759
Substance: NB500-240 (Novus) (antibody)

Source: patent US12467929
